From paper PMC8941942, “Functional and Structural Characterization of Diverse NfsB Chloramphenicol Reductase Enzymes from Human Pathogens” (Microbiology Spectrum, 2022)

How the values were obtained:
[1] = target: T1, Ng FA1090 NfsB (Neisseria gonorrhoeae, UniProt Q5F9K5); assay type: cell-based; conditions: 100 µg/mL chloramphenicol, MDG medium, 37°C; compared with empty vector
T1 construct: gene NGO_0388

[2] = tested on: O=C(N[C@H](CO)[C@H](O)c1ccc([N+](=O)[O-])cc1)C(Cl)Cl; assay: purified protein; conditions: apparent, 1 mM NADPH, 1 µM FMN, 50 mM Tris pH 8, ~23°C
[3] = tested on: NC(=O)C1=CN([C@@H]2O[C@H](COP(=O)(O)OP(=O)(O)OC[C@H]3O[C@@H](n4cnc5c(N)ncnc54)[C@H](OP(=O)(O)O)[C@@H]3O)[C@@H](O)[C@H]2O)C=CC1; assay: purified protein; conditions: apparent, 1 mM chloramphenicol, 1 µM FMN, 50 mM Tris pH 8, ~23°C

T1 sequence (Q5F9K5 1-221): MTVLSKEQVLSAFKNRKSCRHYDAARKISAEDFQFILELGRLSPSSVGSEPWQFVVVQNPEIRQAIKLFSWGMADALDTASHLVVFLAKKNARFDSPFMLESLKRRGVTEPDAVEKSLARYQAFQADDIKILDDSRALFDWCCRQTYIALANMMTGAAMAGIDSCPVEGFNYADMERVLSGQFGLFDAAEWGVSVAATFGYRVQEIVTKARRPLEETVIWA

Compound	Bratton-Marshall assay of resting E. coli expressing nfsB [1]	Km [2]	kcat [2] [s⁻¹]	kcat/Km [2] [M⁻¹ s⁻¹]	Km [3] [µM]	kcat [3] [s⁻¹]	kcat/Km [3] [M⁻¹ s⁻¹]
O=C(N[C@H](CO)[C@H](O)c1ccc([N+](=O)[O-])cc1)C(Cl)Cl [chloramphenicol]	Es. coli strains expressing H. influenzae or Neisseria nfsB genes showed robust signal	–	–	–	–	–	–
Hi 86-028NP NfsB (Haemophilus influenzae 86-028NP)	–	200 ± 40 µM	8.7 ± 0.9	44500	21 ± 2	9.9 ± 0.6	478000
Hi KW20 NfsB (Haemophilus influenzae Rd KW20)	–	260 ± 20 µM	14 ± 0.3	55500	49 ± 6	13 ± 0.5	278000
Nm Z2491 NfsB (Neisseria meningitidis Z2491)	–	1,300 ± 800 μM	8.9 ± 3	8120	22 ± 4	8.2 ± 0.3	388000
